Data: US20210054088A1

Assays:
FcγRI = FcγRI (UniProt P12314); assay: MSD assay, Fcγ receptor coated
FcγRIIIa(F) = FcγRIIIa(F) (UniProt P08637); assay: MSD assay, Fcγ receptor coated
FcγRIIIa(V) = FcγRIIIa(V) (UniProt P08637); assay: MSD assay, Fcγ receptor coated
FcγRIIa(H) = FcγRIIa(H) (UniProt P12318); assay: MSD assay, Fcγ receptor coated
FcγRIIb = FcγRIIb (UniProt P31994); assay: MSD assay, Fcγ receptor coated
Human C1q (human) = Human C1q (human) (UniProt P02745); assay: ELISA, antibody coated, human C1q added
Human C1q (human), sequence (P02745 23-245 limits assumed, chain 1 of 3): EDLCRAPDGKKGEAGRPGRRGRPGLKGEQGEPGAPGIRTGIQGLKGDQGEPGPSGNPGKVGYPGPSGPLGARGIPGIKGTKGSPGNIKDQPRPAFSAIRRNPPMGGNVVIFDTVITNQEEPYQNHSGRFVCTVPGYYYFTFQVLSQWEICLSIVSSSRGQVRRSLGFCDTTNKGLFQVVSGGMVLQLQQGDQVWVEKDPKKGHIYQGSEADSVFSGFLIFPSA
Human C1q (human), sequence (P02746 28-253 limits assumed, chain 2 of 3, further chain): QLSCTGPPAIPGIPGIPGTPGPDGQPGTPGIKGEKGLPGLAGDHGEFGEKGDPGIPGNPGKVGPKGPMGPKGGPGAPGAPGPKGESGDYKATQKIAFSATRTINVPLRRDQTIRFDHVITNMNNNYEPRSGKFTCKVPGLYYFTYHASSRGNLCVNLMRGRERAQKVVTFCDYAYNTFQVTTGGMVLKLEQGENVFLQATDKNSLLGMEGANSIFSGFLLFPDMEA
Human C1q (human), sequence (P02747 29-245 limits assumed, chain 3 of 3, further chain): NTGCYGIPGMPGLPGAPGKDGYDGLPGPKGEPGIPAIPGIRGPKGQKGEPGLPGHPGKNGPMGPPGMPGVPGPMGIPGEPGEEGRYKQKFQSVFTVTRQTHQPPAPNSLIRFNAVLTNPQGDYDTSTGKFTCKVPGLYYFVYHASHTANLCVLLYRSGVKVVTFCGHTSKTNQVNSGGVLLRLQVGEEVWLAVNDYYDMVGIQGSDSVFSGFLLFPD

FcγRIIa(H), sequence (P12318 36-218 limits assumed): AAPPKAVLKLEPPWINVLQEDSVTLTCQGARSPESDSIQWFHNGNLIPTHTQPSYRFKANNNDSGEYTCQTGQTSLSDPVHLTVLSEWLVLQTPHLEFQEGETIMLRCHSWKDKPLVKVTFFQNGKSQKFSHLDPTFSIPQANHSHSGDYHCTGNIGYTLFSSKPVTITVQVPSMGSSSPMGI
FcγRIIb, sequence (P31994 43-217 limits assumed): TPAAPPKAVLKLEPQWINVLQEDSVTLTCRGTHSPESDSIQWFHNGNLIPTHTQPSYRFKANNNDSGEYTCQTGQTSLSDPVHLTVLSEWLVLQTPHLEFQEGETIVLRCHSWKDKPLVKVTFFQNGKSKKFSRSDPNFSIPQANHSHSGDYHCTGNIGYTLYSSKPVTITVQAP
FcγRI, sequence (P12314 16-288 limits assumed): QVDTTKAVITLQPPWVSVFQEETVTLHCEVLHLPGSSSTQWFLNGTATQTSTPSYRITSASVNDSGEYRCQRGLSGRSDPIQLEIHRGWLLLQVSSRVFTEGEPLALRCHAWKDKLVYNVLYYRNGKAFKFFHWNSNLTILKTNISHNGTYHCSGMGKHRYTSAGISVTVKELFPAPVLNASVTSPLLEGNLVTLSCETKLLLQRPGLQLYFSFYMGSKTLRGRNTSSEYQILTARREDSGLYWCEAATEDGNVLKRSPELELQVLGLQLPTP
FcγRIIIa(F), sequence (P08637 17-208 limits assumed): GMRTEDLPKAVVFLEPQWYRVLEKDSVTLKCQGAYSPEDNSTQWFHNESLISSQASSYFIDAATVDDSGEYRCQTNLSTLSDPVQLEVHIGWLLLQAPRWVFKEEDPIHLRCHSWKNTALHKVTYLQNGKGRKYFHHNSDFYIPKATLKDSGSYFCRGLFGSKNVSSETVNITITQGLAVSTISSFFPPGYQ
FcγRIIIa(V), sequence (P08637 17-208 F176V limits assumed): as the sequence (P08637 17-208 limits assumed) above, with F160V counted along it

EC50 (FcγRI): 0.8 nM
EC50 (FcγRIIIa(F)): 19 nM
EC50 (FcγRIIIa(V)): 6.2 nM
EC50 (FcγRIIa(H)): 93.7 nM
EC50 (FcγRIIb): > 134 nM
EC50 (Human C1q (human)): 8.9 nM
Substance: Positive Control IgG1 (Intact Fc receptor effector functionality) (antibody)
